B1: JIK-B8 (VHH)
VHH: SGGGLVQPGGSLGLSCVVASERSINNYGMGWYRQAPGKQRELVAQISSGGTTNYADSVEGRFTISRDNVKKMVHLQVNSLKPEDTAVYYCNSLLRTFSWGQGTQVTVSS
B2: JKH-C7 (VHH)
VHH: VQLVESGGGGLVQAGGSLRLSCAASGRTFSGYAMGWFRQAPGKEREFVADISWSGHNTYYGDSVKGRFTISRDTAKNTVYLQMNSLKPEDTAVYYCAAEGARTHLSDSYYFPGLWAEPPVGYWGQGTQVTVSS
notes: also called JHK-C7
B3: JKH-D12 (VHH)
VHH: QVQLVETGGGLVQAGGTLRLSCAASGRTFTSYYIGWFRQEPGKEREFVASIGWTDDNTYYADSVKGRFTISRDNAETTAYLQMSGLKPEDTAVYYCAADYGSGIRAWYNWIYWGQGTQVTVSS
B4: JKH-A4 (VHH)
VHH: QVQLAETGGGLVQAGGSLRLSCSASGLTFGNYAMGWFRQAPGKEREFVASISRSGSNTWYAEPLKGRFAISRDNDKNALYLQMNSLKPEDTAVYYCAGGSYNSDWWNYMYWGQGTQVTVSS
B5: JKM-A6 (VHH)
VHH: QLQLAETGGGLVQPGGSLRLSCAASGATLDTYIITWFRQAPGKEREAVSCINRSGSTTYSDSVKGRFTISRDNAQKTVYLQMNSLNPEDTAIYYCAADASYRTCGGSWWNWAYWGQGTQVTVSS
B6: JIJ-D3 (VHH)
VHH: QVQLVETGGLVQPGGSLRLSCAASGLTFSSTAMAWFRQAPGKEREFVARISGAGITIYYSDSVKDRFTISRNNVENTVYLQMNSLKTEDTAVYYCAARRNTYTSDYNIPARYPYWGQGTQVTVSS
B7: JKO-H2 (VHH)
VHH: QVQLAESGGGLVQAGGSLRLSCAASGRTFSSYVMGWFRQAPGKEREFVAAISRNGGKTYYADSVKGRFTISRDGTENTVYLQMNSLKPEDTAVYYCAAAVAASAEFVTARSNFYEYWGQGTQVTVSS
notes: also called JKO-H12
B8: JIJ-E9 (VHH)
VHH: QVQLVETGGLVQPGGSLRLSCAASRSTTATIYSMNWYRQAPGKQRELVAGMTSDGQTNYATSVKGRFTISRDNAKNTVYLLMNSLKLEDTAVYYCYVKPWRLQGWDYWGQGTQVTVSS
B9: JKO-B8 (VHH)
VHH: QLQLAESGGGLVQPGGSLRLSCTASGIIFDYYSVDWYRQAPGKERELVATITGDGSPNYADSVKGRFTISRDNAKKTVYLQMNGLKPEETAVYYCHAKRTIGTKSEYWGQGTQVTVSS
B10: JIJ-B8 (VHH)
VHH: SGGGLVQPGGSLSVSCAASGSIARPGAMAWYRQAPGKERELVASITPGGLTNYADSVTGRFTISRDNAKRTVYLQMNSLQPEDTAVYYCHARIIPLGLGSEYRDHWGQGTQVTVSS
B11: JIK-B10 (VHH)
VHH: QVQLVETGGGLVQPGGSLRLSCAASGFTFSSYRMSWYRQAAGKERDVVATITANGVPTGYADSVMGRFTISRDNAKNTVYLEMNSLNPEDTAVYYCNAPRLHTSVGYWGQGTQVTVSS
B12: JHD-B6 (VHH)
VHH: QVQLVESGGGLVQPGGSLRLSCAASGSSFSRYAMRWYRQAPGKQRELVANINSRGTSNYADSVKGRFTISRDNAKNTVYLQMNSLKPEDTAVYYCNAEWLGRSEPSWGQGTQVTVSS
B13: JKO-A4 (VHH)
VHH: QVQLAESGGGSVQPGGSLRLSCAASGFTFSSYTMSWVRQAPGKGIEWVSDINGGGDRTDYADSVKGRFTISRDNARNTLYLQMNSLQPEDTAVYYCAKDLSYVSGTYFANDWGQGTQVTVSS
B14: JIJ-A12 (VHH)
VHH: QVQLVESGGGLVQPGGSLRLSCAASGIIFSIYTMGWYRQAPGKQRELVAAIPSGPSANATDSVGGRFTITRDNAENTVYLQMNDLKPEDTAVYYCNARRGPGIKNYWGQGTQVTVSS
B15: JKO-E12 (VHH)
VHH: QVQLAETGGGLVQAGGSLRLSCLASRMSFSRRPMAWYRQAPGKQRERVATISSFGDTTNYTDSVEGRFTISRDNAKNTMYLQMNSLKPDDTAVYYCNTLLATYAWGQGTQVTVSS

Results on 15 molecules are retold here after patent publication US20210221874A1 (TRUSTEES OF TUFTS COLLEGE, published 2021).

T1 sequence (P13423 30-764): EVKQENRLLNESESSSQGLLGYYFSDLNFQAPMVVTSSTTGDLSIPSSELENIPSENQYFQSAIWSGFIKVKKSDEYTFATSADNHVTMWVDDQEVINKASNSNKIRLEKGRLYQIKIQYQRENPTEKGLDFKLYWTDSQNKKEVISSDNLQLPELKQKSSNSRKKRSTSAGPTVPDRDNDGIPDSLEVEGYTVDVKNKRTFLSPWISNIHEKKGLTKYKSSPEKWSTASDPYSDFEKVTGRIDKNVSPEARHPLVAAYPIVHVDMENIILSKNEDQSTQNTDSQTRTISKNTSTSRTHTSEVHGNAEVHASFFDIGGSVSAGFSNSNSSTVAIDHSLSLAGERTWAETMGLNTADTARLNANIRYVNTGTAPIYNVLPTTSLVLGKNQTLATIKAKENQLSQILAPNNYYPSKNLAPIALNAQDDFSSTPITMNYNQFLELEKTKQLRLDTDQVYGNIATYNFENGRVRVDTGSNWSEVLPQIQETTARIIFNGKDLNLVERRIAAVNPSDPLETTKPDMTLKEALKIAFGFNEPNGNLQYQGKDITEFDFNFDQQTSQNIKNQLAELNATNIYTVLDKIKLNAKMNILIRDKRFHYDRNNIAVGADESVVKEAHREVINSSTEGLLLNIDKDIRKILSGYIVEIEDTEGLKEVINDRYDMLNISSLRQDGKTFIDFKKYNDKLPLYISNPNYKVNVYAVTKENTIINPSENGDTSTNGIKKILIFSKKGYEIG

The first experiment has as its target T1, anthrax protective antigen, wild type PA83 (Bacillus anthracis, UniProt P13423 30-764). The experiment is described as follows: cell-based or functional assay.
Consider B1, for which the “IC50 (read off the curve)” value is ~1 nM.

In the case of B2, the “IC50 (read off the curve)” value was ~4 nM.

A further experiment addresses T1, anthrax protective antigen, wild type …. The experiment is described as follows: dilution ELISA on PA-coated plates. For orientation: An ELISA detects its analyte on a solid surface through an enzyme-linked reagent.
As usually defined, the EC50 is the concentration that produces a half-maximal response. A high value points to a need for much substance. Regarding B1, the EC50 was 0.2 nM.

On to B3, for which the response was half-maximal at 0.3 nM (EC50). The EC50 values of the last two molecules are within 1.5-fold of each other.

B4 came in with a concentration for a half-maximal effect (EC50) of 0.5 nM. Compared with the last molecule, the EC50 is about 1.7-fold higher.

B5 had an EC50 of 0.3 nM.

With B6, the half-maximal effective concentration (EC50) came out at 0.3 nM.

In turn, B7 came in with an EC50 of 0.6 nM.

Molecule B8 showed an EC50 of 0.4 nM.

For B9, the EC50 is > 100 nM.

In turn, B10 came in with an EC50 of 0.4 nM.

In turn, B2 displayed an EC50 of 2 nM.

B11 had a half-maximal effective concentration (EC50) of 0.2 nM.

Regarding B12, the EC50 is 0.5 nM. Against the preceding molecule, the EC50 is about 2.5-fold higher.

Turning to B13, the EC50 amounted to 0.3 nM.

The molecule B14 yielded an EC50 of 2 nM.

Turning to B15, the midpoint of the response, the EC50, lay at 0.1 nM.

The target is the same in the next experiment. The experiment is described as follows: SPR (ProteOn XPR36).
Broadly, the Kd is the constant that tells how readily two partners part at equilibrium. Low values mean a tighter complex, high ones a looser complex. The molecule B1 registered a Kd of 0.13 nM.

B6 displayed a Kd of 18 nM.

In the case of B8, the Kd was determined as 12 nM. Against the preceding molecule, the Kd is about 1.5-fold lower.

Consider B10, for which binding was put at a Kd of 8 nM.

As for B11, the Kd is 9 nM.

Molecule B12 displayed a Kd of 66 nM.

In the case of B14, the Kd was determined as 45 nM.

The target is the same in a further experiment. Kind of experiment: cell-based or functional assay. This is another data set of the same source.
B1: the “IC50 (anthrax lethal toxin neutralization, RAW264.7 macrophages)” value is 1 nM.

In the case of B6, the “IC50 (anthrax lethal toxin neutralization, RAW264.7 macrophages)” value came out at 9 nM.

For the molecule B8, the “IC50 (anthrax lethal toxin neutralization, RAW264.7 macrophages)” value was found to be 30 nM.

Regarding B2, the “IC50 (anthrax lethal toxin neutralization, RAW264.7 macrophages)” value stood at 5 nM.

For B11, the “IC50 (anthrax lethal toxin neutralization, RAW264.7 macrophages)” value stood at 8 nM.

Regarding B12, the “IC50 (anthrax lethal toxin neutralization, RAW264.7 macrophages)” value worked out at 10 nM.

For B15, the “IC50 (anthrax lethal toxin neutralization, RAW264.7 macrophages)” value was found to be 0.2 nM.

The next experiment shares this target.
Assay: not given
As a reminder, the EC50 (read off the curve) is the midpoint of the concentration-response curve. A lower EC50 (read off the curve) goes with an effect from little substance. Take B2: the “EC50 (read off the curve)” value is ~2 nM.

The next experiment has the same target. The experiment is described as follows: SPR (Biacore 3000).
B3 yielded a Kd of 1 nM.

In the case of B4, the Kd was determined as 9 nM.

B5: binding was put at a Kd of 20 nM.

As to B7, binding was put at a Kd of 4 nM. This Kd is about 5-fold lower than that of the molecule before.

With B9, binding was characterised by a dissociation constant (Kd) of 200 nM.

Regarding B2, binding was characterised by a dissociation constant (Kd) of 7 nM.

Molecule B13 showed a Kd of 10 nM.

As for B15, the Kd is 0.2 nM.
